The target of the test is T1, β2 adrenergic receptor (β2AR), wild type, receptor part of the β2AR–G peptide SPASM FRET sensor (human, UniProt P07550).
T1 construct: β2 adrenergic receptor (β2AR), human; One polypeptide: Receptor-4×GSG-mCitrine-4×GSG-10 nm ER/K linker-4×GSG-mCerulean-4×GSG-G peptide; the receptor and the G peptide (m5 or m6) are tethered on the same chain; also called WT; wild-type β2AR–Gs peptide sensor; source: HEK 293T Flp-In T-Rex cells, transfected, crude membrane extracts; not shown: mCitrine, C-terminal, kept
Briefly: FRET or BRET; ∆FRET assay of β2AR SPASM sensors in membrane extracts; purified Nb6B9 added to quench the agonist-induced change in FRET. As to conditions: one partner purified.

B1: Nanobody Nb6B9 (Nb6B9-2×GSG-SNAP tag-Flag-2×GSG-6×His) (VHH)
VHH: QVQLQESGGGLVQAGGSLRLSCAASGSIFALNIMGWYRQAPGKQRELVAAIHSGGTTNYANSVKGRFTISRDNAANTVYLQMNSLKPEDTAVYYCNVKDFGAIIYDYDYWGQGTQVTVSS
notes: Cloned into a pBiex1 backbone; source: E. coli JM109, purified (Ni-NTA, Superdex 200 gel filtration)
As to B1, the binding result is “binds”.
